Measurements taken from patent US20220267427A1 (SYSMEX, published 2022).

Assays:
[1] = molecular target: T1, fCK18 in apoptosis-induced HepG2 cell culture supernatant (human, UniProt P05783 239-397); test: plate ELISA with K18-624 magnetic microbeads, K18-328Fab-ALP detector; fCK18 20.27 ng/mL
T1 construct: Natural CK18 fragment from the culture supernatant of apoptosis-induced HepG2 cells (band around 18 KDa); also called fCK18 in apoptosis-inducing cells
T1 sequence: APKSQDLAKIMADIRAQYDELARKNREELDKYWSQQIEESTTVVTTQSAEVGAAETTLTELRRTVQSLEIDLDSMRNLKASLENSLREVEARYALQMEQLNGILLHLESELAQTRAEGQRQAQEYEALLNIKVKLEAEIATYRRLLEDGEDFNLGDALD
Experimental: (§1) Measurement samples of 3-fold dilution series (3-fold to 6561-fold dilution) were prepared from the apoptosis-induced HepG2 cell culture supernatant with a diluent (TBS, pH 7.5, 2% BSA), and fCK18 was measured. […] Based on the prepared calibration curve, fCK18 in the measurement sample was measured.
(§2) This solution was added to an ELISA plate at 25 μL/well, then each measurement sample was added at 25 μL/well, and the plate was incubated (1500 rpm, RT, 20 min). […] (3) After washing the plate, the HISCL (registered trademark) R4 reagent was added thereto at 50 μL/well, and then the mixture was stirred (1500 rpm, RT, 1 min). Thereafter, the HISCL (registered trademark) R5 reagent was added at 100 μL/well, and then the mixture was stirred (1000 rpm, RT, 10 sec). (4) Luminescence intensity was measured with a plate reader.

rfCK18 (239-396) = molecular target: T2, rfCK18 (239-396) (human, UniProt P05783 239-396); test: solid phase ELISA, antigen captured through anti-GST or penta HIS antibody
T2 construct: Bought (Cloud-Clone-Corp.); captured through an anti-GST or penta HIS antibody, the tag is not described
T2 sequence: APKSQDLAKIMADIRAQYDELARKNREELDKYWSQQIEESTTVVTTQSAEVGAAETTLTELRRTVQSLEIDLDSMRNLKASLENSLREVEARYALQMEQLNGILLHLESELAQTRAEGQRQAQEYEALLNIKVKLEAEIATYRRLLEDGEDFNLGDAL
Experimental: (1) An ANTI GST antibody or a penta HIS antibody was added to an ELISA plat at 2.5 μg/mL and 50 μL/well, and the plate was allowed to stand at 4° C. overnight to immobilize the antibody. Thereafter, the plate was washed three times with PBST, and Buffer I′ (10 mM NaH₂PO₄.2H₂O, 149.7 mM NaCl, 2.5 mM EDTA 2Na, 0.10% BSA, pH 7.0) was added thereto at 200 μL/well to prepare a plate stored at 4° C. overnight. […] (3) The plate was washed three times with PBST, and 50 μL each of each antigen diluent was added thereto, followed by shaking for 45 minutes. […] (6) The plate was washed three times with PBST, and 15000-fold diluted Peroxidase-conjugated Affinipure F(ab)′2 Fragment Goat Anti-Mouse IgG (H+L) (Jackson) was added thereto at 50 μL/well, followed by shaking for 45 minutes. (7) The plate was washed three times with PBST, TMB Mix (1-step Ultra TMB-ELISA (Thermo Scientific):3% H₂O₂: Phosphate-Citrate buffer (Sigma)=15:0.15:14.85) was added thereto at 100 μL/well, and the mixture was reacted at room temperature for 10 minutes. Thereafter, 1 M H₂SO₄ was added thereto at 100 μL/well to stop the reaction. (8) Absorbance of the reaction solution at 450 nm was measured with a plate reader.

[2] = molecular target: T1, fCK18 in apoptosis-induced HepG2 cell …; test: HISCL sandwich immunoassay; K18-624 magnetic microbeads capture, K18-328Fab-ALP detector; fCK18 60.73 ng/mL
[3] = molecular target: T1, fCK18 in apoptosis-induced HepG2 cell …; test: HISCL sandwich immunoassay; K18-624 magnetic microbeads capture, K18-328Fab-ALP detector; fCK18 0.28 ng/mL
[4] = molecular target: T1, fCK18 in apoptosis-induced HepG2 cell …; test: HISCL sandwich immunoassay; K18-624 magnetic microbeads capture, K18-328Fab-ALP detector; fCK18 6.79 ng/mL
Experimental: as §1, §2

[5] = molecular target: T1, fCK18 in apoptosis-induced HepG2 cell …; test: HISCL sandwich immunoassay; K18-624 magnetic microbeads capture, K18-328Fab-ALP detector; fCK18 2.23 ng/mL
[6] = molecular target: T1, fCK18 in apoptosis-induced HepG2 cell …; test: HISCL sandwich immunoassay; K18-624 magnetic microbeads capture, K18-328Fab-ALP detector

S/N ratio [1]: 525
binding result (rfCK18 (239-396)): no binding (tested: 5 to 10 ng/mL)
S/N ratio [2]: 683
S/N ratio [3]: 3.8
S/N ratio [4]: 75.7
S/N ratio [5]: 25.9
fCK18 concentration detectable (S/N ratio of 2 or more) [6]: ≥ 0.28 ng/mL
fold detection sensitivity compared with Comparative Example 1 (M30 antibody) [6]: ~8 fold
B1: K18-624 antibody (antibody, V domains shown)
VH: DVQLVESGGGLVQPGGSRKLSCAASGFTFSSFGMHWVRQAPEKGLEWVAYISSGSTTIYYADTVKGRFTISRDNPKNTLFLQMTSLRSEDTAMYYCARRGMITTGAWFAYWGQGTLVTVSA
VL: DILLTQSPAILSVSPGERVSFSCRASQRIGTSIHWYQQRTNGSPRLLIKYASESISGIPSRFSGSGSGTDFTLSINSVESEDIADYYCQQSYIWPFTFGSGTKLEIK
notes: Mouse monoclonal antibody from a hybridoma (Balb/C mouse immunised with Peptide 1-KLH)
